Reference: paper PMC4066782, “The telomerase inhibitor Gno1p/PINX1 activates the helicase Prp43p during ribosome biogenesis” (Nucleic Acids Research, 2014)

Target: Prp43p-HIS (S. cerevisiae, UniProt P53131 1-767)
Assay: cell-based or functional assay

Sequence of Prp43p-HIS (P53131 whole entry): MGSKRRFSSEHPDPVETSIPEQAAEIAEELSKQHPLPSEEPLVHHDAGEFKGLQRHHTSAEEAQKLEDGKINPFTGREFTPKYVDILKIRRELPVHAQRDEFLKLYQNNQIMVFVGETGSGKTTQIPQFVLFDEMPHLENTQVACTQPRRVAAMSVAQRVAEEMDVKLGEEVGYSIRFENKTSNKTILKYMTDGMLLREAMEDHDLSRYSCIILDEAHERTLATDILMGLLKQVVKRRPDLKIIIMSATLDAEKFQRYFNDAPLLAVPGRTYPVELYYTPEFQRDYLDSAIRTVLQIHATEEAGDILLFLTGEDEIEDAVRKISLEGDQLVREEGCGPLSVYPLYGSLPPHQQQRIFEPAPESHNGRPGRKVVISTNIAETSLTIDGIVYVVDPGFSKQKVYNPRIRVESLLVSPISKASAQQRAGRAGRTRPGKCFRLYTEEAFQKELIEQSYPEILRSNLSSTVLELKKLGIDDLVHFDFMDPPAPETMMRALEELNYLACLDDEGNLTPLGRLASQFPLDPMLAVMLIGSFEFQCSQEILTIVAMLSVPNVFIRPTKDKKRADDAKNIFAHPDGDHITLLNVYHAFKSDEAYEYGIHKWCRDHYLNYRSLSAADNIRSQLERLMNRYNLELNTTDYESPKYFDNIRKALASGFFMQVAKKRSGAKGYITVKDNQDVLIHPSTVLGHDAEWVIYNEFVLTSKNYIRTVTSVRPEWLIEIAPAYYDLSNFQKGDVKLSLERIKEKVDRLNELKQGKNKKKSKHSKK

- ATP hydrolysed by Prp43p-HIS after 60 min of incubation, with GST-PINX1-HIS against without (0.1 μM proteins, 100 μM ATP, 30°C): 9 fold
B1: GST-PINX1-HIS (natural protein, human, UniProt Q96BK5 1-328, looked up)
chain: MSMLAERRRKQKWAVDPQNTAWSNDDSKFGQRMLEKMGWSKGKGLGAQEQGATDHIKVQVKNNHLGLGATINNEDNWIAHQDDFNQLLAELNTCHGQETTDSSDKKEKKSFSLEEKSKISKNRVHYMKFTKGKDLSSRSKTDLDCIFGKRQSKKTPEGDASPSTPEENETTTTSAFTIQEYFAKRMAALKNKPQVPVPGSDISETQVERKRGKKRNKEATGKDVESYLQPKAKRHTEGKPERAEAQERVAKKKSAPAEEQLRGPCWDQSSKASAQDAGDHVQPPEGRDFTLKPKKRRGKKKLQKPVEIAEDATLEETLVKKKKKKDSK
